Source: PMC6299498 (BMC Veterinary Research, 2018)

Molecular target: T1, SLA-2*HB01 heavy chain (swine leukocyte antigen 2, haplotype HB01 allele), extracellular domain (Sus scrofa)
T1 construct: SLA-2 haplotype HB01 allele, swine MHC class I heavy chain, extracellular domain stated as 275 amino acids; also called heavy chain of SLA-2*HB01
T1 MHC heavy: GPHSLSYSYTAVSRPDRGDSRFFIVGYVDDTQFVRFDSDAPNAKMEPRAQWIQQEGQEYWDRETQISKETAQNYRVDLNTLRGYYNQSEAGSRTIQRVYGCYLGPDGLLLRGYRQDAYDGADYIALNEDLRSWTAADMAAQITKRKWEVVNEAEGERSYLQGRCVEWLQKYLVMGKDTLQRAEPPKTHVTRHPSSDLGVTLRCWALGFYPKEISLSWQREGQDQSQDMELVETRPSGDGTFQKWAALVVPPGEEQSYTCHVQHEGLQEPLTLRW
Assay: SEC
Conditions: both partners purified

ALLRSATYY
binding result: binds
